Data as given in paper PMC5469495, “MicroRNA319-regulated TCPs interact with FBHs and PFT1 to activate CO transcription and control flowering time in Arabidopsis” (PLoS Genetics, 2017).

T1: PFT1-YFP (Arabidopsis thaliana, UniProt Q7XYY2 1-836)
T1 construct: PFT1 (MED25), Arabidopsis thaliana, At1g25540; FRET acceptor; also called PHYTOCHROME AND FLOWERING TIME 1; MED25; source: Arabidopsis protoplast cells, co-expressed
T1 sequence (looked up): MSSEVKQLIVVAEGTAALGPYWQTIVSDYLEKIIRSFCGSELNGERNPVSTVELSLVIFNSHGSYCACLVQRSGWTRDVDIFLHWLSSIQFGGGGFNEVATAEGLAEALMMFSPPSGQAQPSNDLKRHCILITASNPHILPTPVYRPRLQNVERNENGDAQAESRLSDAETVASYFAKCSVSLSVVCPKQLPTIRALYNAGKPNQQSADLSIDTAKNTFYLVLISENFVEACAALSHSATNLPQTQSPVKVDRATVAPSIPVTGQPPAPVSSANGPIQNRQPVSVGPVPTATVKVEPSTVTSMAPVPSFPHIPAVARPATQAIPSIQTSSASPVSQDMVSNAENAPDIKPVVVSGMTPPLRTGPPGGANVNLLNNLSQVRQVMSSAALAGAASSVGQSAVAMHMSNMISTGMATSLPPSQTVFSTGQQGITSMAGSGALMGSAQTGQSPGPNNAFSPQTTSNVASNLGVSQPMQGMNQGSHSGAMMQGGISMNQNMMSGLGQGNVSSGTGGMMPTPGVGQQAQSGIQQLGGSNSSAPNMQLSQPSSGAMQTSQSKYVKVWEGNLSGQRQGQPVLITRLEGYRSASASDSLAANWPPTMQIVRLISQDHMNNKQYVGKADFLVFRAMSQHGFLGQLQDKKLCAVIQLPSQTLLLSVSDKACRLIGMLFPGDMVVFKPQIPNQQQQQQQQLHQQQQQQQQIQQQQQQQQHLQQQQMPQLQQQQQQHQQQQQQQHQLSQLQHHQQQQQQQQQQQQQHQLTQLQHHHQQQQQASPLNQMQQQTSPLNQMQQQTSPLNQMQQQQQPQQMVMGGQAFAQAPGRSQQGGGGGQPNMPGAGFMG

T2: PFT1-CFP (Arabidopsis thaliana, UniProt Q7XYY2 1-836)
T2 construct: PFT1 (MED25), Arabidopsis thaliana, At1g25540; FRET donor; also called PHYTOCHROME AND FLOWERING TIME 1; MED25; source: Arabidopsis protoplast cells, co-expressed
T2 sequence (looked up): T1 sequence (looked up)

B1: TCP4-CFP (natural protein, Arabidopsis thaliana, UniProt Q8LPR5 1-420, looked up)
chain: MSDDQFHHPPPPSSMRHRSTSDAADGGCGEIVEVQGGHIVRSTGRKDRHSKVCTAKGPRDRRVRLSAHTAIQFYDVQDRLGFDRPSKAVDWLIKKAKTSIDELAELPPWNPADAIRLAAANAKPRRTTAKTQISPSPPPPQQQQQQQQLQFGVGFNGGGAEHPSNNESSFLPPSMDSDSIADTIKSFFPVIGSSTEAPSNHNLMHNYHHQHPPDLLSRTNSQNQDLRLSLQSFPDGPPSLLHHQHHHHTSASASEPTLFYGQSNPLGFDTSSWEQQSSEFGRIQRLVAWNSGGGGGATDTGNGGGFLFAPPTPSTTSFQPVLGQSQQLYSQRGPLQSSYSPMIRAWFDPHHHHQSISTDDLNHHHHLPPPVHQSAIPGIGFASGEFSSGFRIPARFQGQEEEQHDGLTHKPSSASSISRH
notes: TCP4, Arabidopsis thaliana, At3g15030; FRET donor; source: Arabidopsis protoplast cells, co-expressed
B2: FBH1-YFP (natural protein, Arabidopsis thaliana, UniProt Q9C8P8 1-259, looked up)
chain: MQSTHISGGSSGGGGGGGGEVSRSGLSRIRSAPATWIETLLEEDEEEGLKPNLCLTELLTGNNNSGGVITSRDDSFEFLSSVEQGLYNHHQGGGFHRQNSSPADFLSGSGSGTDGYFSNFGIPANYDYLSTNVDISPTKRSRDMETQFSSQLKEEQMSGGISGMMDMNMDKIFEDSVPCRVRAKRGCATHPRSIAERVRRTRISDRIRRLQELVPNMDKQTNTADMLEEAVEYVKALQSQIQELTEQQKRCKCKPKEEQ
notes: FBH1, Arabidopsis thaliana, At1g35460; FRET acceptor; also called FLOWERING BHLH 1; source: Arabidopsis protoplast cells, co-expressed

Legend:
Test in all cases: FRET or BRET; FLIM-FRET in Arabidopsis protoplast cells, 24 h after transformation; CFP fusion as donor, YFP fusion as acceptor; CFP lifetime in nuclei; negative controls TCP4-CFP/YFP tauD 2.59 ± 0.39 ns and PFT1-CFP/YFP tauD 2.80 ± 0.28 ns
Conditions in all cases: partners not purified
FBH1-YFP = target: B2
PFT1-YFP = target: T1, PFT1-YFP
PFT1-CFP = target: T2, PFT1-CFP

| Binder | average CFP fluorescence lifetime (tauDA) (FBH1-YFP) | average CFP fluorescence lifetime (tauDA) (PFT1-YFP) | average CFP fluorescence lifetime (tauDA) (PFT1-CFP) |
| --- | --- | --- | --- |
| B1 | 0.99 ns | 0.9 ns | – |
| B2 | – | – | 0.95 ns |
